Measured values: IntAct's records for PubMed 29150600

target: tlr4_human TLR4 (UniProt O00206)
Sequence (O00206 whole entry): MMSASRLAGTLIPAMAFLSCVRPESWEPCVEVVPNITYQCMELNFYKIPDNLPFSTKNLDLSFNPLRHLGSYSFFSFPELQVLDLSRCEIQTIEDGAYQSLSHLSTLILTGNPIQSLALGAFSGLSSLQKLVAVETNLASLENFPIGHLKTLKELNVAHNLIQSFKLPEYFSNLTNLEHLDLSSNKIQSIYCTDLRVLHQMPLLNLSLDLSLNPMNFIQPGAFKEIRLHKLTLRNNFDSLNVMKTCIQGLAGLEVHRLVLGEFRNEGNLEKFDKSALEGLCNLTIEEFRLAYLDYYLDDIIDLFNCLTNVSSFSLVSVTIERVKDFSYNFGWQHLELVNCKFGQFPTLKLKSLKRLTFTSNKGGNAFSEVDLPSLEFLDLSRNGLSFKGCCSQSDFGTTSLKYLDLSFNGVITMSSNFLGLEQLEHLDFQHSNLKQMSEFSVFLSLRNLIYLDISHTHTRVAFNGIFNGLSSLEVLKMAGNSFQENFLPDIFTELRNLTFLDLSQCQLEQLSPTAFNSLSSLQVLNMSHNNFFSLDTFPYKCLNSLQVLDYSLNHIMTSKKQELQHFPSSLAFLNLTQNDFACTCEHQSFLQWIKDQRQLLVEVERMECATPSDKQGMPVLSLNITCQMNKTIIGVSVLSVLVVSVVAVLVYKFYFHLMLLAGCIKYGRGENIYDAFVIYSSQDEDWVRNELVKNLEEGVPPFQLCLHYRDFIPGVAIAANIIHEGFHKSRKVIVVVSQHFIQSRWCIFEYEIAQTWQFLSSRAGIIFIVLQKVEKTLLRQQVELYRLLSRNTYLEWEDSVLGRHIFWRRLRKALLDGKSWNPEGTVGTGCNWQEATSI

| effect of a mutation on the interaction | Substance |
| --- | --- |
| decreasing interaction strength | Tenascin (Homo sapiens), P24821 D2130P;I2133L;N2135S |
| decreasing interaction strength | Tenascin (Homo sapiens), P24821 K2096A;R2098A |
| decreasing interaction strength | Tenascin (Homo sapiens), P24821 K2096A;R2098A;K2100A;K2102A |

Second part, the substance before the results:

| Substance | effect of a mutation on the interaction |
| --- | --- |
| Tenascin (Homo sapiens), P24821 K2096A;R2098A;K2100A;K2102A;D2130P;I2133L;N2135S | decreasing interaction strength |
| Tenascin (Homo sapiens), P24821 K2100A;K2102A | decreasing interaction strength |
